Results from paper PMC9482650, “Quantitative fragmentomics allow affinity mapping of interactomes” (Nature Communications, 2022).
Residue numbers refer to the chain shown, from its start.

B1: MYOZ1, Q9NP98 (peptide)
chain: IPLDGETEEL
B2: TMEM151B, Q8IW70 (peptide)
chain: RHGSCVETSL
B3: JAG1, P78504 (peptide)
chain: QSLNRMEYIV
B4: SLC22A12, Q96S37 (peptide)
chain: GNSVLKSTQF
B5: MYOZ3, Q8TDC0 (peptide)
chain: VRNLPESEEL
B6: NLGN4X, Q8N0W4 (peptide)
chain: LPHGHSTTRV

The binders below were run against T1, APBA3_1, O96018 (assay: holdup assay). Settings: plain residues with an end cap or a label only (N-terminal biotin on a linker: ado-ado).
T1 sequence (O96018 389-490, limits assumed, looked up): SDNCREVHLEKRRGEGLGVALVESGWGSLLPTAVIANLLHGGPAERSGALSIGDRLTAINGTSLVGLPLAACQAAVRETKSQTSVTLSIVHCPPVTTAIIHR
Set-up: key: below the threshold = too weak to quantify, mostly under pKd 3.1 to 4

Binder	pKd
B1	below the threshold
B2	below the threshold
B3	below the threshold
B4	below the threshold
B5	below the threshold
B6	below the threshold

What follows are binders tested against Inadl_6, Q8NI35 (assay: holdup assay). Settings: plain residues with an end cap or a label only (N-terminal biotin on a linker: ado-ado).
Sequence of Inadl_6, Q8NI35 (Q8NI35 1058-1167): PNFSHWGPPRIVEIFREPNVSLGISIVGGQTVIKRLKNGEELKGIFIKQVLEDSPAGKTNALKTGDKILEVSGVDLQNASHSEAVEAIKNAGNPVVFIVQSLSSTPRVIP
Set-up: key: below the threshold = too weak to quantify, mostly under pKd 3.1 to 4

Binder	pKd
B1	below the threshold
B2	4.31
B3	below the threshold
B4	below the threshold
B5	below the threshold
B6	below the threshold

The binders below were run against T2, LIN7C, Q9NUP9 (assay: holdup assay). Settings: plain residues with an end cap or a label only (N-terminal biotin on a linker: ado-ado).
T2 sequence (Q9NUP9 88-185, limits assumed, looked up): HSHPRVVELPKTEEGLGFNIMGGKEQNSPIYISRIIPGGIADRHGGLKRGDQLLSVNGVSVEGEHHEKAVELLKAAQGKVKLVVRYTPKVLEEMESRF
Set-up: key: below the threshold = too weak to quantify, mostly under pKd 3.1 to 4

Binder	pKd
B1	below the threshold
B2	4.43
B3	3.53
B4	4.12
B5	below the threshold
B6	below the threshold

Each binder was assayed against FRMPD2_1, Q68DX3 (assay: holdup assay). Settings: plain residues with an end cap or a label only (N-terminal biotin on a linker: ado-ado).
Sequence of FRMPD2_1, Q68DX3 (Q68DX3 770-861): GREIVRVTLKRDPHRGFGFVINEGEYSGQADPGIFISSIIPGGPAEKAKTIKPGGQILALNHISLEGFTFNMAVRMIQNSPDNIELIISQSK
Set-up: key: below the threshold = too weak to quantify, mostly under pKd 3.1 to 4

Binder	pKd
B1	below the threshold
B2	below the threshold
B3	3.89
B4	below the threshold
B5	below the threshold
B6	below the threshold

These binders were tested against ARHGEF12, Q9NZN5-2 (assay: holdup assay). Settings: plain residues with an end cap or a label only (N-terminal biotin on a linker: ado-ado).
Sequence of ARHGEF12, Q9NZN5-2 (Q9NZN5 other isoform, or with tags, fused parts or gaps): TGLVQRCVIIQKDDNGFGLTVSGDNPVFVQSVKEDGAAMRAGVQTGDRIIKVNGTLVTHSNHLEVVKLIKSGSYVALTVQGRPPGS
Set-up: key: below the threshold = too weak to quantify, mostly under pKd 3.1 to 4

Binder	pKd
B1	below the threshold
B2	5.07
B3	below the threshold
B4	below the threshold
B5	below the threshold
B6	3.98

The binders below were run against Inadl_1, Q8NI35 (assay: holdup assay). Settings: plain residues with an end cap or a label only (N-terminal biotin on a linker: ado-ado).
Sequence of Inadl_1, Q8NI35 (Q8NI35 113-229): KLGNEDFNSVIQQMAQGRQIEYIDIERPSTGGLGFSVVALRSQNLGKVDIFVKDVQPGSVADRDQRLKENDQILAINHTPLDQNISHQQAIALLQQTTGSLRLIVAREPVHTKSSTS
Set-up: key: below the threshold = too weak to quantify, mostly under pKd 3.1 to 4

Binder	pKd
B1	below the threshold
B2	below the threshold
B3	3.69
B4	below the threshold
B5	below the threshold
B6	below the threshold

What follows are binders tested against T3, GRIP1_4, Q9Y3R0 (assay: holdup assay). Settings: plain residues with an end cap or a label only (N-terminal biotin on a linker: ado-ado).
T3 sequence (Q9Y3R0 467-571, limits assumed, looked up): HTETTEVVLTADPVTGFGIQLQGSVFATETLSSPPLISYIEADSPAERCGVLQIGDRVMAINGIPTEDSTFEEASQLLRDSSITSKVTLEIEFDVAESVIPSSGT
Set-up: key: below the threshold = too weak to quantify, mostly under pKd 3.1 to 4

Binder	pKd
B1	below the threshold
B2	below the threshold
B3	below the threshold
B4	below the threshold
B5	below the threshold
B6	below the threshold

Each binder was assayed against T4, PDZD2_2, O15018 (assay: holdup assay). Settings: plain residues with an end cap or a label only (N-terminal biotin on a linker: ado-ado).
T4 sequence (O15018 329-429, limits assumed, looked up): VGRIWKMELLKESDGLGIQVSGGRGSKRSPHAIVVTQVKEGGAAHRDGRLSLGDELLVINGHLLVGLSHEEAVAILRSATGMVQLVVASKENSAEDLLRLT
Set-up: key: below the threshold = too weak to quantify, mostly under pKd 3.1 to 4

Binder	pKd
B1	below the threshold
B2	3.56
B3	below the threshold
B4	below the threshold
B5	below the threshold
B6	3.53

Each binder was assayed against MAGI2_5, Q86UL8 (assay: holdup assay). Settings: plain residues with an end cap or a label only (N-terminal biotin on a linker: ado-ado).
Sequence of MAGI2_5, Q86UL8 (Q86UL8 915-1017): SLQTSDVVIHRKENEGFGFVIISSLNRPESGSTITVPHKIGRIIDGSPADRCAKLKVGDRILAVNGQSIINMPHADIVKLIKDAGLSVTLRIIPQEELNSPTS
Set-up: key: below the threshold = too weak to quantify, mostly under pKd 3.1 to 4

Binder	pKd
B1	below the threshold
B2	4.22
B3	below the threshold
B4	4.3
B5	below the threshold
B6	below the threshold

The binders below were run against GRID2IP_1, A4D2P6 (assay: holdup assay). Settings: plain residues with an end cap or a label only (N-terminal biotin on a linker: ado-ado).
Sequence of GRID2IP_1, A4D2P6 (A4D2P6 1-87): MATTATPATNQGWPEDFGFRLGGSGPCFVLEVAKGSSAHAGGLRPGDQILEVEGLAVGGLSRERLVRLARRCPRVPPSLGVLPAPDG
Set-up: key: below the threshold = too weak to quantify, mostly under pKd 3.1 to 4

Binder	pKd
B1	below the threshold
B2	below the threshold
B3	below the threshold
B4	below the threshold
B5	below the threshold
B6	below the threshold

What follows are binders tested against T5, DVL3, Q92997 (assay: holdup assay). Settings: plain residues with an end cap or a label only (N-terminal biotin on a linker: ado-ado).
T5 sequence (Q92997 244-331, limits assumed, looked up): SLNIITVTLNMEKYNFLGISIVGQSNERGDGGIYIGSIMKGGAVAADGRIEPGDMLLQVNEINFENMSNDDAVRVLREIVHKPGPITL
Set-up: key: below the threshold = too weak to quantify, mostly under pKd 3.1 to 4

Binder	pKd
B1	below the threshold
B2	below the threshold
B3	3.78
B4	below the threshold
B5	below the threshold
B6	below the threshold

What follows are binders tested against T6, PDZD7_3, Q9H5P4 (assay: holdup assay). Settings: plain residues with an end cap or a label only (N-terminal biotin on a linker: ado-ado).
T6 sequence (Q9H5P4 857-944, limits assumed, looked up): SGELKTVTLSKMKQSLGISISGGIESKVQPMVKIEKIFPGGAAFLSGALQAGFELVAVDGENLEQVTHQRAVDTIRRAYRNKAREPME
Set-up: key: below the threshold = too weak to quantify, mostly under pKd 3.1 to 4

Binder	pKd
B1	below the threshold
B2	4.46
B3	3.68
B4	4
B5	3.74
B6	4.28

The binders below were run against IL16_4, Q14005 (assay: holdup assay). Settings: plain residues with an end cap or a label only (N-terminal biotin on a linker: ado-ado).
Sequence of IL16_4, Q14005 (Q14005 1229-1329): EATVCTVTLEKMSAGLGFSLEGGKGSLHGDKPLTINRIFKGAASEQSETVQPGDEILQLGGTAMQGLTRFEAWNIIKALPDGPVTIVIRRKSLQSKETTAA
Set-up: key: below the threshold = too weak to quantify, mostly under pKd 3.1 to 4

Binder	pKd
B1	below the threshold
B2	3.61
B3	below the threshold
B4	3.58
B5	below the threshold
B6	3.74

These binders were tested against T7, MPP2, Q14168 (assay: holdup assay). Settings: plain residues with an end cap or a label only (N-terminal biotin on a linker: ado-ado).
T7 sequence (Q14168 180-250, limits assumed, looked up): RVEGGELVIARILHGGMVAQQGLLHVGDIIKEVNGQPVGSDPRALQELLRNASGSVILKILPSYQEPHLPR
Set-up: key: below the threshold = too weak to quantify, mostly under pKd 3.1 to 4

Binder	pKd
B1	below the threshold
B2	below the threshold
B3	below the threshold
B4	below the threshold
B5	below the threshold
B6	below the threshold

What follows are binders tested against Inadl_3, Q8NI35 (assay: holdup assay). Settings: plain residues with an end cap or a label only (N-terminal biotin on a linker: ado-ado).
Sequence of Inadl_3, Q8NI35 (Q8NI35 359-469): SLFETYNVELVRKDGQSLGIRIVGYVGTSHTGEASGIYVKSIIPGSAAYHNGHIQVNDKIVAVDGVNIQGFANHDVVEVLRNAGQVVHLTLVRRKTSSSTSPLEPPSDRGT
Set-up: key: below the threshold = too weak to quantify, mostly under pKd 3.1 to 4

Binder	pKd
B1	below the threshold
B2	3.59
B3	5.17
B4	below the threshold
B5	below the threshold
B6	below the threshold

What follows are binders tested against T8, FRMPD1, Q5SYB0 (assay: holdup assay). Settings: plain residues with an end cap or a label only (N-terminal biotin on a linker: ado-ado).
T8 sequence (Q5SYB0 52-145, limits assumed, looked up): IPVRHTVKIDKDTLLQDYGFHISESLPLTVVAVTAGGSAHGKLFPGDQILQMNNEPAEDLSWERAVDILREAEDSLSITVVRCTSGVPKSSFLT
Set-up: key: below the threshold = too weak to quantify, mostly under pKd 3.1 to 4

Binder	pKd
B1	below the threshold
B2	below the threshold
B3	below the threshold
B4	below the threshold
B5	below the threshold
B6	below the threshold

The binders below were run against NHERF4_4, Q86UT5 (assay: holdup assay). Settings: plain residues with an end cap or a label only (N-terminal biotin on a linker: ado-ado).
Sequence of NHERF4_4, Q86UT5 (Q86UT5 464-550): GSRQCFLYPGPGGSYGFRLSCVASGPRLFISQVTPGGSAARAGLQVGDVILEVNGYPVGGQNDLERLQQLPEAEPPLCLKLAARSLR
Set-up: key: below the threshold = too weak to quantify, mostly under pKd 3.1 to 4

Binder	pKd
B1	below the threshold
B2	below the threshold
B3	below the threshold
B4	below the threshold
B5	3.85
B6	below the threshold

These binders were tested against Inadl_8, Q8NI35 (assay: holdup assay). Settings: plain residues with an end cap or a label only (N-terminal biotin on a linker: ado-ado).
Sequence of Inadl_8, Q8NI35 (Q8NI35 1425-1530): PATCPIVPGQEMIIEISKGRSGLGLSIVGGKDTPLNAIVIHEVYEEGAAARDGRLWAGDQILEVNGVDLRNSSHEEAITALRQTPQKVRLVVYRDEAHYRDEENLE
Set-up: key: below the threshold = too weak to quantify, mostly under pKd 3.1 to 4

Binder	pKd
B1	below the threshold
B2	below the threshold
B3	below the threshold
B4	below the threshold
B5	below the threshold
B6	4.33

These binders were tested against T9, HTRA4, P83105 (assay: holdup assay). Settings: plain residues with an end cap or a label only (N-terminal biotin on a linker: ado-ado).
T9 sequence (P83105 378-476, limits assumed, looked up): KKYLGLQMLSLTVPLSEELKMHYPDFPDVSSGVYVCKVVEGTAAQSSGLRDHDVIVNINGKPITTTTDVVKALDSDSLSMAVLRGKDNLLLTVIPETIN
Set-up: key: below the threshold = too weak to quantify, mostly under pKd 3.1 to 4

Binder	pKd
B1	below the threshold
B2	below the threshold
B3	below the threshold
B4	below the threshold
B5	3.94
B6	4.04

The binders below were run against NHERF4_1, Q86UT5-2 (assay: holdup assay). Settings: plain residues with an end cap or a label only (N-terminal biotin on a linker: ado-ado).
Sequence of NHERF4_1, Q86UT5-2 (Q86UT5 other isoform, or with tags, fused parts or gaps): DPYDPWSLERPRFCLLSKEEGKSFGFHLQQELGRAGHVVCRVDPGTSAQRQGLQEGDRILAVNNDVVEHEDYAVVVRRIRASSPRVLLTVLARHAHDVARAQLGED
Set-up: key: below the threshold = too weak to quantify, mostly under pKd 3.1 to 4

Binder	pKd
B1	4.2
B2	4.51
B3	below the threshold
B4	4.1
B5	4.3
B6	3.76

The binders below were run against LNX1_3, Q8TBB1 (assay: holdup assay). Settings: plain residues with an end cap or a label only (N-terminal biotin on a linker: ado-ado).
Sequence of LNX1_3, Q8TBB1 (Q8TBB1 500-596): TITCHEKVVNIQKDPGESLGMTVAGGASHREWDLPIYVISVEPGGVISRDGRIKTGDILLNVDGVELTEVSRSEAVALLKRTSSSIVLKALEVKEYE
Set-up: key: below the threshold = too weak to quantify, mostly under pKd 3.1 to 4

Binder	pKd
B1	below the threshold
B2	below the threshold
B3	3.96
B4	below the threshold
B5	below the threshold
B6	below the threshold

The binders below were run against MAST2, Q6P0Q8 (assay: holdup assay). Settings: plain residues with an end cap or a label only (N-terminal biotin on a linker: ado-ado).
Sequence of MAST2, Q6P0Q8 (Q6P0Q8 1099-1202): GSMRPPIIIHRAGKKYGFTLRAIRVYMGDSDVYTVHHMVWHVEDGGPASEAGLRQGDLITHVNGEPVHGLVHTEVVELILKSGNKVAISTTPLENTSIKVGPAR
Set-up: key: below the threshold = too weak to quantify, mostly under pKd 3.1 to 4

Binder	pKd
B1	4.41
B2	5.64
B3	4.07
B4	4.77
B5	4.74
B6	5.12

The binders below were run against T10, LIN7B, Q9HAP6 (assay: holdup assay). Settings: plain residues with an end cap or a label only (N-terminal biotin on a linker: ado-ado).
T10 sequence (Q9HAP6 88-185, limits assumed, looked up): T2 sequence (Q9NUP9 88-185, limits assumed, looked up) with S2A, E13D, I35V, I40V, H65Q, K79S, K89R, S96A
Set-up: key: below the threshold = too weak to quantify, mostly under pKd 3.1 to 4

Binder	pKd
B1	below the threshold
B2	4.45
B3	below the threshold
B4	3.71
B5	below the threshold
B6	3.66

These binders were tested against Inadl_9, Q8NI35 (assay: holdup assay). Settings: plain residues with an end cap or a label only (N-terminal biotin on a linker: ado-ado).
Sequence of Inadl_9, Q8NI35 (Q8NI35 1530-1615): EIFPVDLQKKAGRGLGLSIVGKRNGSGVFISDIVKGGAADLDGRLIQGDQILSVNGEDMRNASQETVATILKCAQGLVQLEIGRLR
Set-up: key: below the threshold = too weak to quantify, mostly under pKd 3.1 to 4

Binder	pKd
B1	below the threshold
B2	below the threshold
B3	3.65
B4	below the threshold
B5	below the threshold
B6	below the threshold

The binders below were run against T11, LNX2_3, Q8N448 (assay: holdup assay). Settings: plain residues with an end cap or a label only (N-terminal biotin on a linker: ado-ado).
T11 sequence (Q8N448 463-564, limits assumed, looked up): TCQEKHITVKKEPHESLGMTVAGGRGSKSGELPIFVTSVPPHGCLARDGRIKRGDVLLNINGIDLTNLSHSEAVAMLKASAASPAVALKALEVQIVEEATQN
Set-up: key: below the threshold = too weak to quantify, mostly under pKd 3.1 to 4

Binder	pKd
B1	below the threshold
B2	below the threshold
B3	below the threshold
B4	below the threshold
B5	below the threshold
B6	below the threshold

The binders below were run against DLG4_1, P78352 (assay: holdup assay). Settings: plain residues with an end cap or a label only (N-terminal biotin on a linker: ado-ado).
Sequence of DLG4_1, P78352 (P78352 62-152): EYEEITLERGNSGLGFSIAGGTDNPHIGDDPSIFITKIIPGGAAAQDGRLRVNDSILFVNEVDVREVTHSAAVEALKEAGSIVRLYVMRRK
Set-up: key: below the threshold = too weak to quantify, mostly under pKd 3.1 to 4

Binder	pKd
B1	below the threshold
B2	3.98
B3	below the threshold
B4	below the threshold
B5	below the threshold
B6	3.51
